The target of this assay is T1, native FtsZ (Streptococcus pneumoniae R800, UniProt A0A0H2ZNE0 1-419).
T1 sequence (looked up): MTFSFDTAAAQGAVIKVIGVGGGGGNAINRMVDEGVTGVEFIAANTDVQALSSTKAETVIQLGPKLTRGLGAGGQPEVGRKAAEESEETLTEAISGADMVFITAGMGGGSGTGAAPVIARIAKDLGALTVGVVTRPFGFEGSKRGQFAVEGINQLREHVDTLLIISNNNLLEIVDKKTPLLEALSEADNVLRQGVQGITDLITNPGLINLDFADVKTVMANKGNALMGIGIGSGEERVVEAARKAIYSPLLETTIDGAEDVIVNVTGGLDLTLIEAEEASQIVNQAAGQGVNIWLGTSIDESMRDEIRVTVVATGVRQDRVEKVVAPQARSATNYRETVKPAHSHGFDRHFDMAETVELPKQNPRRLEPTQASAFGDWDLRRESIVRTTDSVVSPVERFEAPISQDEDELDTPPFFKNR
Put plainly: MST.

B1: RocS-ΔAH-6His (domain or fragment, Streptococcus pneumoniae R800, UniProt Q8DQ15 1-150, looked up)
chain: MSIEMTVSEIAEVLGLSRQAINNRVKELPEEDTDKNDKGVTVVTRSGLIKLEEIYKKTIFEDEPVSEDVKQRELMEILVDEKNAEILRLYEQLKAKDRQLSEKDEQMRIKDRQIAEKDKQLDQQQQLTLQAMKDQENLKLELDQAKEEVQ
modifications: labeled with the red dye NT-647
Regarding B1, the binding result was “binds”.

Source of the values: PMC7611331 (Nature microbiology, 2019).
